Patent US20260000752A1

Target: human IgG (used as a control) (human)
Test: ELISA pH 7.4; human IgG control coated, biotinylated FcRn titrated, streptavidin-HRP

- EC50: 0.0292 µg/mL
Substance: recombinant human FcRn, biotinylated (R&D Systems) (from UniProt P55899 24-297; P61769 21-119) (receptor)
